The values below come from article PMC4546566 (Annals of neurology, 2015).

A short description of data set [1]: Aβ stable isotope labeling kinetics. Format: in vivo, human. Particulars: for FTR faster in cognitively normal amyloid positive group: in vivo.
Data set [2] is classed as in vivo, human. To be noted: 0.143 - 0.091.

Regarding “Aβ40: endogenous soluble amyloid-beta isoform ending at residue 40, measured in human CSF”, the “FTR faster in cognitively normal amyloid positive group” value (“FTR faster” below) in data set [1] worked out at 17%.

Regarding “Aβ42: endogenous soluble amyloid-beta isoform ending at residue 42, measured in human CSF”, the “FTR (fractional turnover rate, irreversible loss)” value in data set [1] (compartmental model, CDR-SB = 0 (n=44), mean ± SD) is listed as 0.104 ± 0.036 pools/h. For the same substance, the “FTR faster” value in data set [1] stood at 57%. The “deposition rate constant into amyloid plaques” value in data set [2] was 0.052 pool/h.

As to “Aβ38: endogenous soluble amyloid-beta isoform ending at residue 38, measured in human CSF”, in data set [1], the “FTR faster” value is on record as 22%.
